From patent US20220267750A1 (Merck KGaA, published 2022)

Biological target: GP41-1 C-intein-thioredoxin fusion protein (CINT_TRX)
Test: cell-based or functional assay

catalytic rate (cleavage rate): ~3 fold of the parent construct NINTΔA_CC
B1: GP41-1 N-intein variant NINTΔA_TM fused with solubilization partner 138 (other)
chain: MTRSGYALDLKTQVQTPQGMKEISNIQVGDLVLSNTGYNEVLNVFPKSKKKSYKITLEDGKEIITSEEHLFPTQTGEMNISGGLKEGMMLYVKEGGMNKDEAGGNWKQFKGKVKEQWGKLTDDDMTIIEGKRDQLVGKIQERYGYQKDQAEKEVVDWETRNEYRW
